Source: patent publication US7732568B2, “Methods for preventing and treating Alzheimer's disease” (AFFIRIS Forschungs-und Entwicklungs GmbH, priority 2003, dated 2010)

Key:
[1] = target: DAEFRH-specific monoclonal antibody (mAb) produced according to example 1; experiment: competition ELISA: soluble peptide vs plate-bound DAEFRH-C-BSA for biotinylated mAb, FIG. 2
[2] = target: DAEFRH-specific monoclonal antibody (mAb) produced according to example 1; experiment: competition ELISA: soluble peptide vs plate-bound DAEFRH-C-BSA for biotinylated mAb, FIG. 5
[3] = target: DAEFRH-specific monoclonal antibody (mAb) produced according to example 1; experiment: competition ELISA: soluble peptide vs plate-bound DAEFRH-C-BSA for biotinylated mAb, FIG. 3
[4] = target: DAEFRH-specific monoclonal antibody (mAb) produced according to example 1; experiment: competition ELISA: soluble peptide vs plate-bound DAEFRH-C-BSA for biotinylated mAb, FIG. 4

Binder	IC50 [1] [µg/mL]	IC50 [2] [µg/mL]	other results
EAEFRGC [Peptide 3006 EAEFRG]	< 0.5	–	–
DKELRIC [Peptide 3001 DKELRI]	< 0.5	–	–
YAEFRGC [Peptide 3005 YAEFRG]	> 0.5	–	–
DWELRIC [Peptide 3002 DWELRI]	> 0.5	–	–
EYEFRGC [Peptide 1239 EYEFRG]	–	> 0.5	–
DRELKIC [Peptide 1237 DRELKI]	–	> 5	–
SFEFRGC [Peptide 3009 SFEFRG]	–	–	IC50 [3]: < 5 µg/mL
ELEFRGC [Peptide 3008 ELEFRG]	–	–	IC50 [3]: < 5 µg/mL
SWEFRTC [Peptide 4002 SWEFRT]	–	–	IC50 [4]: < 0.4 µg/mL
DKELKIC [Peptide 1236 DKELKI]	–	> 5	–
